In article PMC8571082 (2021):

B1: Mint3NT, N-terminal fragment (1–214) of Mint3 [human] / factor inhibiting HIF-1 (FIH-1), full-length [human] (parent complex)
chain 1: MDFPTISRSPSGPPAMDLEGPRDILVPSEDLTPDSQWDPMPGGPGSLSRMELDESSLQELVQQFEALPGDLVGPSPGGAPCPLHIATGHGLASQEIADAHGLLSAEAGRDDLLGLLHCEECPPSQTGPEEPLEPAPRLLQPPEDPDEDSDSPEWVEGASAEQEGSRSSSSSPEPWLETVPLVTPEEPPAGAQSPETLASYPAPQEVPGPCDHED
chain 2: MAATAAEAVASGSGEPREEAGALGPAWDESQLRSYSFPTRPIPRLSQSDPRAEELIENEEPVVLTDTNLVYPALKWDLEYLQENIGNGDFSVYSASTHKFLYYDEKKMANFQNFKPRSNREEMKFHEFVEKLQDIQQRGGEERLYLQQTLNDTVGRKIVMDFLGFNWNWINKQQGKRGWGQLTSNLLLIGMEGNVTPAHYDEQQNFFAQIKGYKRCILFPPDQFECLYPYPVHHPCDRQSQVDFDNPDYERFPNFQNVVGYETVVGPGDVLYIPMYWWHHIESLLNGGITITVNFWYKGAPTPKRIEYPLKAHQKVAIMRNIEKMLGEALGNPQEVGPLLNTMIKGRYN

Variants of: B1
Experiment: ITC; measured three times for each FIH-1 mutant

Row | Variant | dG [kcal/mol]
1 | chain 2 E250A | -9
2 | chain 2 E79A | -8.7
3 | chain 2 Y71A | -8.6
4 | chain 2 E29A | -9.1

Other lines, results leading:

Row | dG [kcal/mol] | Variant
5 | -8.8 | chain 2 K75A
6 | -9.3 | chain 2 D248A
7 | -8.7 | chain 2 N171A
